Consider 14 molecules from patent publication US20190351049A1 (Regeneron, published 2019).

Sequences and labels used below:
B1: H1H15259P2 (antibody, V domains shown)
VH: QVQLVESGGGVVQPGRSLRLSCAASGFTFSNYGIHWVRQAPGKGLEWVAGIYYDGSNKYYGDSVKGRFTISRDNSKNTLYLQMNSLRAEDTAVYYCARDRGNNHYYHNNPYYYYHGLDVWGQGTTVTVSS
VL: not shown
B2: H1H15253P2 (antibody, V domains shown)
VH: EVQLVESGGGLVQPGGSLRLSCVVSGFTSRNYAMSWVRQAPGKGLEWVSAISGSGGSTYYADSVKGRFTISRDNPKNTLYLQMNSLRAEDTALYYCAEDPGTSFDYWGQGTLVTVSS
VL: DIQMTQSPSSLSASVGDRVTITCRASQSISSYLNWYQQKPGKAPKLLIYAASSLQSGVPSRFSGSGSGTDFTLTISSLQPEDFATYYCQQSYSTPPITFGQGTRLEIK
B3: H1H15233P2 (antibody, V domains shown)
VH: EVQLVESGGGLVQPGGSLRLSCAASGFSFSSYGMNWVRQAPGKGLEWVSAISGRGGNTYSADSVKGRFTISRDNSKNTLFLQMNGLRAEDSAFYYCAKVGTYSSSSPFDYWGQGTLVTVSS
VL: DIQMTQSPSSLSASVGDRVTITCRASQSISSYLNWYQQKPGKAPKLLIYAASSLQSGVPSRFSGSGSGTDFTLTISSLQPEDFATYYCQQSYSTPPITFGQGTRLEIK
B4: H1H15260P2 (antibody, V domains shown)
VH: QVQLQESGPGLVKPSETLSLTCSVSGGSITSSYWSWIRQPPGRGLEWIGYVYYYGTTKYNPSLKSRVTTSMDTSKNQFSLKLNSVTAADTAVYYCARLELLFDYWGQGTLVTVSS
VL: not shown
B5: H1H15208P (antibody, V domains shown)
VH: EVQLVESGGDLVQPGGSLRLSCTASGFTFSNYEMNWVRQAPEKGLDWVSFISSSGGAIYYADSVKGRFTISRDNAKNSLYLQMNSLRAEDSAIYFCARSDSGGNSRYWGQGTLVTVSS
VL: DIQMTQSPSSVSASVGDRVTVTCRASQDISNWLVWYQQKPGKAPKFLIYAASSLQSGVPSRFSGSGSGTDFTLTISSLQPEDFATYYCQQANSFPPTFGGGTKVEIK
B6: H1H15188P (antibody, V domains shown)
VH: QVQLVQSGAEVKKPGSSVKVSCKASGGSFSVYAISWVRQAPGQGLEWMGGIIPIFGTANYAQKFQDRFTITTDESTSTAYMELSSLRSEDTAMYYCAREGDIVVLPAGKGGMDVWGQGTTVTVSS
VL: DIVMTQSPLSLPVTPGEPASISCRSSQSLLHGNGYNYLDWYLQKPGQSPQLLIYLVSHRASGVPDRFSGSGSGTDFTLKISRVEAEDVGVYYCMQALQSPWTFGQGTKVEIK
B7: H1H15177P (antibody, V domains shown)
VH: EVQLVESGGGLVQPGGSLRLSCSASGFTFSSYDMSWVRQAPGKGLEWVSAIRGSGHTTYYADSVKGRFTISRDNSKNTLYLEMNSLRAEDTAVYYCVKDGSIVGFDPWGQGTLVTVSS
VL: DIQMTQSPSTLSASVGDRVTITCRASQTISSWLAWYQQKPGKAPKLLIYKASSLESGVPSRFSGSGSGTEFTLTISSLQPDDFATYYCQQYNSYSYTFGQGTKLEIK
B8: H1H15231P2 (antibody, V domains shown)
VH: QLQLQESGPGLVKPSETLSLTCTVSGGSISSNTYYWGWIRQPPGKGLEWIGTIYYTGNTYYKSSLKSRVTISVDTSRNQFSLKLTSVTAADTAVYYCARQFADLNYVDYWGQGTLVTVSS
VL: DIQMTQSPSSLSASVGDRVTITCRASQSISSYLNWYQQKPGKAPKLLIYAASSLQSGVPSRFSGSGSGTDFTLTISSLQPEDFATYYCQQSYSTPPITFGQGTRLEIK
B9: H1H15215P (antibody, V domains shown)
VH: EVQLVESGGGLVQPGGSLRLSCAASGFTFSTYGMSWVRQAPGKGLEWVSTIIGSGYNTYYSDSVKGRFTMSRDNSKSTLYLQMNSLRAEDTAVYYCTKEGPIIGTTNWGQGTLVTVSS
VL: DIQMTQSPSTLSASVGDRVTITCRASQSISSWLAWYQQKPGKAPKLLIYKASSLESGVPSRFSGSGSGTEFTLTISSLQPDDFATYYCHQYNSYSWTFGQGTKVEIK
B10: H1H15264P2 (antibody, V domains shown)
VH: QLQLQESGPGLVKPSETLSLTCSVSGGSINNNNYYWGWIRQPPGRGLEWIGSFFYSGPTYYNPSLRSRVTISVDTSKNQFSLKLNSVTAADTAIYYCARQDGNYYPLFDYWGQGTLVTVSS
VL: not shown
B11: H1H15203P (antibody, V domains shown)
VH: EVQLVESGGDLVQPGGSLRVSCAASGFTFSNYDMYWVRQAPGKGLEWVSVISGIGATTYYADSVKGRFTISRDNSKNTVFLQMNSLRAEDTAVYYCVKGGPIVATDYWGQGTLVTVSS
VL: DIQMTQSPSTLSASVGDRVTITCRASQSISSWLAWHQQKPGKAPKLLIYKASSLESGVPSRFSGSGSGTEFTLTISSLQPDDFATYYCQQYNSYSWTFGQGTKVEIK
B12: H1H15237P2 (antibody, V domains shown)
VH: EVQLVESGGGLVQPGGSLRLSCAASGFTSNSYPMSWVRQAPGKGLEWVSGISGRGGNTYYADSVKGRFTISRDNSKNTLYLQMNSLRVEDTAVYYCAETGTAFDYWGQGTLVTVSS
VL: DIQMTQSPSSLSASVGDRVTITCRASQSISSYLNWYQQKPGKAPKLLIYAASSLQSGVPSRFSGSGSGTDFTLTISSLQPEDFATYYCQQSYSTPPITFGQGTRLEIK
B13: H1H15249P2 (antibody, V domains shown)
VH: QLQLQESGPGLVKPSETLSLTCTVSGGSISNNNYYWGWIRQPPGKGLDWIGSIYYSGNTYYNPSLKSRVTISVDTSKNQFSLKMSSVTATDTALYYCARQGADHNWVDPWGQGTLVTVSS
VL: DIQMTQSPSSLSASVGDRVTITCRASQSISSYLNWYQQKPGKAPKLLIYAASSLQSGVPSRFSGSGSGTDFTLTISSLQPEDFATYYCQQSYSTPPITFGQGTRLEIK
B14: H1H15228P2 (antibody, V domains shown)
VH: EVQLVESGGGLVQPGGSLRLSCAVFGFTFSGYAMSWVRQAPGKGLEWVSAISGGGGSTYYTDSVKGRFTISRDNSKNTLYLQMNSLRAEDTAVYYCASYWNNGMDVWGQGTTVTVSS
VL: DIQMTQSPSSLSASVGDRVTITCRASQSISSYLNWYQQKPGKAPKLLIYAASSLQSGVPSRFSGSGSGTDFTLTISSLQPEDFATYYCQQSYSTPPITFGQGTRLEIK

The target of the first test is MERS-CoV spike protein (EMC/2012), wt (MERS-CoV (isolate EMC/2012), UniProt K9N5Q8 18-1353). Kind of test: cell-based or functional assay.
For B1, the “IC50 against MERSpp” value is 0.0764 nM and the “IC50 against live virus (EMC2012)” value is 1.63 nM.
In the case of B2, the “IC50 against MERSpp” value worked out at 0.151 nM and the “IC50 against live virus (EMC2012)” value is 2.42 nM.
For B3, in that order: 0.0873 nM and 1.37 nM.
For B4, in that order: 0.0643 nM and 6.7 nM.
In the case of B5, the “IC50 against MERSpp” value amounted to 0.0827 nM and the “IC50 against live virus (EMC2012)” value was found to be 2.41 nM.
As for B6, the “IC50 against MERSpp” value worked out at 0.062 nM and the “IC50 against live virus (EMC2012)” value was 0.505 nM.
Taken in the same sequence, the figures for B7 were 0.0457 nM and 0.629 nM.
Taken in the same sequence, the figures for B8 were 0.102 nM and 0.92 nM.
Taken in the same sequence, the figures for B9 were 0.192 nM and 2.67 nM.
For B10, the “IC50 against MERSpp” value was 0.134 nM and the “IC50 against live virus (EMC2012)” value came to 2.39 nM.
Taken in the same sequence, the figures for B11 were 0.0765 nM and 0.826 nM.
For B12, in that order: 0.066 nM and 1.01 nM.
Taken in the same sequence, the figures for B13 were 0.227 nM and 12 nM.
Consider B14, for which the “IC50 against MERSpp” value came out at 0.0975 nM and the “IC50 against live virus (EMC2012)” value was 0.898 nM.

The next test addresses MERS-RBD-mFc (MERS-CoV (isolate EMC/2012), UniProt K9N5Q8 367-606). Kind of test: Octet BLI, MERS.mFc captured on the sensor, then mAb-1 applied. In general terms: In BLI a coated tip is dipped into the sample, and binding shifts an interference pattern.
For the molecule B1, the “mAb-1 Binding (nm)” value is 0.42 nm.
The same measure, in the same setting: for B2 the value was 0.38 nm; for B3, 0.46 nm.
The same measure, in the same setting: for B4 the value was 0.39 nm; for B5, 0.46 nm; for B6, 0.54 nm.
Same read-out and setting: the result for B7 reads 0.6 nm; that for B8, 0.5 nm.
With B9, the “mAb-1 Binding (nm)” value is 0.56 nm.
Still for that read-out and setting: the result for B10 reads 0.41 nm; that for B11, 0.51 nm.
As to B12, the “mAb-1 Binding (nm)” value worked out at 0.39 nm.
Still for that read-out and setting: the result for B13 reads 0.4 nm.
Still for that read-out and setting: for B14 the value was 0.52 nm.
